We go through four molecules from article PMC9645627, “Ydj1 interaction at nucleotide-binding-domain of yeast Ssa1 impacts Hsp90 collaboration and client maturation” (PLOS Genetics, 2022).

B1: His6-Ydj1 (natural protein, S. cerevisiae, UniProt P25491 1-409, looked up)
chain: MVKETKFYDILGVPVTATDVEIKKAYRKCALKYHPDKNPSEEAAEKFKEASAAYEILSDPEKRDIYDQFGEDGLSGAGGAGGFPGGGFGFGDDIFSQFFGAGGAQRPRGPQRGKDIKHEISASLEELYKGRTAKLALNKQILCKECEGRGGKKGAVKKCTSCNGQGIKFVTRQMGPMIQRFQTECDVCHGTGDIIDPKDRCKSCNGKKVENERKILEVHVEPGMKDGQRIVFKGEADQAPDVIPGDVVFIVSERPHKSFKRDGDDLVYEAEIDLLTAIAGGEFALEHVSGDWLKVGIVPGEVIAPGMRKVIEGKGMPIPKYGGYGNLIIKFTIKFPENHFTSEENLKKLEEILPPRIVPAIPKKATVDECVLADFDPAKYNRTRASRGGANYDSDEEEQGGEGVQCASQ
notes: Ydj1, Hsp40 co-chaperone of S. cerevisiae; His6 is named and used for capture in the pull-down; also called Hsp40
B2: Ssa1 (wt), purified (natural protein)
chain: not shown
notes: Ssa1, cytosolic Hsp70 of S. cerevisiae; the methods say that the tag was removed; also called wt-Ssa1; wt Ssa1; not shown: His6, N-terminal, cleaved
B3: Ssa1-D158N, purified (natural protein)
chain: not shown
notes: Ssa1, cytosolic Hsp70 of S. cerevisiae, with D158N; the methods say that the tag was removed; not shown: His6, N-terminal, cleaved
B4: Ssa1-T175N, purified (natural protein)
chain: not shown
notes: Ssa1, cytosolic Hsp70 of S. cerevisiae, with T175N; the methods say that the tag was removed; not shown: His6, N-terminal, cleaved

In the assay “Ssa1 (wt), purified” the target is B2. The assay can be described thus: BLI; Ssa1, Ssa2, Ssa3 and Ssa4 with Ydj1; set-up not told here (as in ref. 26). On the technique in general: Biolayer interferometry detects binding as a change in optical thickness at a sensor tip.
The assay “Ssa1-T175N, purified” addresses B4. As to the kind of experiment: BLI; Ydj1 (0.75 uM) immobilised on the biosensor, Ssa Hsp70 at varying concentrations as analyte, with 5 mM ATP. Conditions: both partners purified.
The assay “Ssa1-D158N, purified” concerns the target B3. The assay is described as above. The following applies: both partners purified.
In assay [1] the target is T1, Hsp82, purified (S. cerevisiae, UniProt P02829 1-709).
T1 construct: Hsp82, Hsp90 isoform of S. cerevisiae; also called Hsp90; Hsp82 isoform of Hsp90; source: plasmid pET29bHTV-HSP82
As to the kind of experiment: BLI; Octet K2, 30°C; Hsp82 immobilised on AR2G biosensors by amine coupling; Hsp70 1.0 uM as analyte in 25 mM Hepes pH 7.4, 150 mM NaCl, 20 mM MgCl2, 20 mM KCl, 0.1% Tween-20, 0.05% Triton X-100, 1 mM ATP; association and dissociation 200 s each. The following applies: both partners purified.

The target in assay [2] is T1, Hsp82, purified. The assay can be described thus: cell-based or functional assay.
The target in the assay “His6-Ydj1” is B1. As to the kind of experiment: cell-based or functional assay.

T1 sequence (P02829 whole entry, canonical isoform): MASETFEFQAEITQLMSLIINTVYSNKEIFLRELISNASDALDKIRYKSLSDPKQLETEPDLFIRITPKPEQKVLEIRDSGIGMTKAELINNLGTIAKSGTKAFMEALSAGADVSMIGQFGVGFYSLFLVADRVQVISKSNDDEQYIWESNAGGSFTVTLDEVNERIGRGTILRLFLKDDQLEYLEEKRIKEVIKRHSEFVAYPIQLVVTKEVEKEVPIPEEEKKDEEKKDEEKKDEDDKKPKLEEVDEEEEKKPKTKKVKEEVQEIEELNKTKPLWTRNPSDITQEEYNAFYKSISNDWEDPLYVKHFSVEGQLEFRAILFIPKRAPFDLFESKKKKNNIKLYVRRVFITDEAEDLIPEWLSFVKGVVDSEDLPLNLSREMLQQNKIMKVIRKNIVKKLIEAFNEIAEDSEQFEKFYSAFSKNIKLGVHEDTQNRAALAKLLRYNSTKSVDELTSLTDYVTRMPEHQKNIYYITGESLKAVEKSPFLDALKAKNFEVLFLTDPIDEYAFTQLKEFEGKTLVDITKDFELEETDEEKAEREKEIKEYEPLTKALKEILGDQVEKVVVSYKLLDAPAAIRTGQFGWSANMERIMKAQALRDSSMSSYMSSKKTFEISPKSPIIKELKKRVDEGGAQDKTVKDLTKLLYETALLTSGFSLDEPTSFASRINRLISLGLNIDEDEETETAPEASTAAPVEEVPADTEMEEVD
Sequence of Ssa1-D158N, purified (P10591 whole entry D158N): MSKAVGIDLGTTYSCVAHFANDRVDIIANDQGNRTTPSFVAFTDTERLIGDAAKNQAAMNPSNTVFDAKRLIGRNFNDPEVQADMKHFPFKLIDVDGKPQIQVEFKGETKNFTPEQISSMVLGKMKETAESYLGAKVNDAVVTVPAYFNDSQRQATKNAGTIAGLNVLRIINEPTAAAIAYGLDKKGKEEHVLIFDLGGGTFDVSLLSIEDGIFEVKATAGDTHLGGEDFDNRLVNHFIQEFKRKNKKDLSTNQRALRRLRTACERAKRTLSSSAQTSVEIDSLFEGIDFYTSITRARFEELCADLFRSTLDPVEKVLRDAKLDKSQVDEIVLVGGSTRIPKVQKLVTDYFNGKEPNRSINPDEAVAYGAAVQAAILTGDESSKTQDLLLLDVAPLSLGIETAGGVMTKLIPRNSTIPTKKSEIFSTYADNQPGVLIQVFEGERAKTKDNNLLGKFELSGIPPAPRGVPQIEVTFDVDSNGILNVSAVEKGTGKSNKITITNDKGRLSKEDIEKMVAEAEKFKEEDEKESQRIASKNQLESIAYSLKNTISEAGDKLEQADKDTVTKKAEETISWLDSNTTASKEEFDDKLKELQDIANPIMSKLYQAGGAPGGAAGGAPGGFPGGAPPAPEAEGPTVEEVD
Sequence of Ssa1-T175N, purified (P10591 whole entry T175N): as the sequence (P10591 whole entry D158N) above, with N158D, T175N counted along it
Sequence of Ssa1 (wt), purified (P10591 whole entry): as the sequence (P10591 whole entry D158N) above, with N158D counted along it

Regarding B1, the binding result is recorded as “binds” in the assay with Ssa1 (wt), purified; “binds” with Ssa1-T175N, purified; “binds” in the assay with Ssa1-D158N, purified.

Turning to B2, the binding result with Hsp82, purified [1] is “binds”.

Turning to B3, the “fold by which the BLI response of wt-Ssa1 at equilibrium is higher than that of this mutant” value with Hsp82, purified [1] was roughly 2 fold. In addition, the “fold increase in luciferase refolding upon addition of Hsp90 (Hsp82) and Sti1 to a reaction with Ydj1 and Hsp70 (wt Ssa1: 4)” value in the assay with Hsp82, purified [2] worked out at 2 fold. Further, the “refolding of heat-denatured luciferase by Hsp70 with Ydj1, fold, time course to 30 min (wt Ssa1:Ydj1: 30-fold)” value in the assay with His6-Ydj1 is roughly 60 fold.

For the molecule B4, the “fold by which the BLI response of wt-Ssa1 at equilibrium is higher than that of this mutant” value with Hsp82, purified [1] was roughly 4 fold. Besides, the “fold increase in luciferase refolding upon addition of Hsp90 (Hsp82) and Sti1 to a reaction with Ydj1 and Hsp70 (wt Ssa1: 4)” value in the assay with Hsp82, purified [2] was 2 fold. Further, in the assay with His6-Ydj1, the “refolding of heat-denatured luciferase by Hsp70 with Ydj1, fold, time course to 30 min (wt Ssa1:Ydj1: 30-fold)” value is roughly 60 fold.
